Substitutions are numbered along the chain they refer to. In names and notes the source's numbering stands.
B1: 4G8.3-GS-9E8.4E (PR-1575832) (bispecific antibody, human IgG1, kappa, L234A L235A)
heavy: EVQLVQSGSELKKPGASVKVSCKASGYTFTNYGMYWVRQAPGQGLEWMGWINTETGKPTYADDFKGRFVFSLDTSVSTAYLQISSLKAEDTAVYYCARTNYYYRSYIFYFDYWGQGTMVTVSSGGGGSGGGGSEVTLRESGPALVKPTQTLTLTCTFSGFSLSTYGMGVGWIRQPPGKALEWLANIWWDDDKYYNPSLKNRLTISKDTSKNQVVLTMTNMDPVDTATYYCARIESIGTTYSFDYWGQGTMVTVSSASTKGPSVFPLAPSSKSTSGGTAALGCLVKDYFPEPVTVSWNSGALTSGVHTFPAVLQSSGLYSLSSVVTVPSSSLGTQTYICNVNHKPSNTKVDKKVEPKSCDKTHTCPPCPAPEAAGGPSVFLFPPKPKDTLMISRTPEVTCVVVDVSHEDPEVKFNWYVDGVEVHNAKTKPREEQYNSTYRVVSVLTVLHQDWLNGKEYKCKVSNKALPAPIEKTISKAKGQPREPQVYTLPPSREEMTKNQVSLTCLVKGFYPSDIAVEWESNGQPENNYKTTPPVLDSDGSFFLYSKLTVDKSRWQQGNVFSCSVMHEALHNAYTQKSLSLSPGK
light: DTVLTQSPATLSLSPGERATLSCRASESVSTHMHWYQQKPGQAPRLLIYGASNLESGVPARFSGSGSGTDFTLTISSLEPEDFAVYFCQQSWNDPFTFGQGTKLEIKRGGSGGGGSGEFVLTQSPGTLSLSPGERATLSCERSSGDIGESYVSWYQQKPGQAPRLVIYADDQRPSGIPDRFSGSGSGTDFTLTISRLEPEDFAVYYCQSYDINIDIVFGGGTKVEIKRTVAAPSVFIFPPSDEQLKSGTASVVCLLNNFYPREAKVQWKVDNALQSGNSQESVTEQDSKDSTYSLSSTLTLSKADYEKHKVYACEVTHQGLSSPVTKSFNRGEC
notes: DVD-Ig: outer hBDB-4G8.3 (VEGF), inner hBDI-9E8.4E (PDGF), linkers GS-H10/GS-L10; Human IgG1 L234A, L235A, H435A with kappa
B2: 9A8.12-GS-9E8.4E (PR-1577165) (bispecific antibody, human IgG1, kappa, L234A L235A)
heavy: EVQLVQSGAEVKKPGASVKVSCKASGYTFTNYGMYWVRQAPGQGLEWMGWINTETGKPIYADDFKGRVTMTTDTSTSTAYMELRSLRSDDTAVYYCARVDYDGSFWFAYWGQGTLVTVSSGGGGSGGGGSEVTLRESGPALVKPTQTLTLTCTFSGFSLSTYGMGVGWIRQPPGKALEWLANIWWDDDKYYNPSLKNRLTISKDTSKNQVVLTMTNMDPVDTATYYCARIESIGTTYSFDYWGQGTMVTVSSASTKGPSVFPLAPSSKSTSGGTAALGCLVKDYFPEPVTVSWNSGALTSGVHTFPAVLQSSGLYSLSSVVTVPSSSLGTQTYICNVNHKPSNTKVDKKVEPKSCDKTHTCPPCPAPEAAGGPSVFLFPPKPKDTLMISRTPEVTCVVVDVSHEDPEVKFNWYVDGVEVHNAKTKPREEQYNSTYRVVSVLTVLHQDWLNGKEYKCKVSNKALPAPIEKTISKAKGQPREPQVYTLPPSREEMTKNQVSLTCLVKGFYPSDIAVEWESNGQPENNYKTTPPVLDSDGSFFLYSKLTVDKSRWQQGNVFSCSVMHEALHNAYTQKSLSLSPGK
light: DTQLTQSPSSLSASVGDRVTITCRASESVSTVIHWYQQKPGKQPKLLIHGASNLESGVPSRFSGSGSGTDFTLTISSLQPEDFATYFCQQHWNDPPTFGQGTKLEIKRGGSGGGGSGEFVLTQSPGTLSLSPGERATLSCERSSGDIGESYVSWYQQKPGQAPRLVIYADDQRPSGIPDRFSGSGSGTDFTLTISRLEPEDFAVYYCQSYDINIDIVFGGGTKVEIKRTVAAPSVFIFPPSDEQLKSGTASVVCLLNNFYPREAKVQWKVDNALQSGNSQESVTEQDSKDSTYSLSSTLTLSKADYEKHKVYACEVTHQGLSSPVTKSFNRGEC
notes: DVD-Ig: outer hBEW-9A8.12 (VEGF), inner hBDI-9E8.4E (PDGF), linkers GS-H10/GS-L10; Human IgG1 L234A, L235A, H435A with kappa
B3: 4G8.3-LS-9E8.4 (g) (PR-1572106) (bispecific antibody, human IgG1, kappa, L234A L235A)
heavy: EVQLVQSGSELKKPGASVKVSCKASGYTFTNYGMYWVRQAPGQGLEWMGWINTETGKPTYADDFKGRFVFSLDTSVSTAYLQISSLKAEDTAVYYCARTNYYYRSYIFYFDYWGQGTMVTVSSASTKGPSVFPLAPEVTLRESGPALVKPTQTLTLTCTFSGFSLSTYGMGVGWIRQPPGKALEWLANIWWDDDKYYNPSLKNRLTISKDTSKNQVVLTMTNMDPVDTATYYCARIESIGTTYSFDYWGQGTMVTVSSASTKGPSVFPLAPSSKSTSGGTAALGCLVKDYFPEPVTVSWNSGALTSGVHTFPAVLQSSGLYSLSSVVTVPSSSLGTQTYICNVNHKPSNTKVDKKVEPKSCDKTHTCPPCPAPEAAGGPSVFLFPPKPKDTLMISRTPEVTCVVVDVSHEDPEVKFNWYVDGVEVHNAKTKPREEQYNSTYRVVSVLTVLHQDWLNGKEYKCKVSNKALPAPIEKTISKAKGQPREPQVYTLPPSREEMTKNQVSLTCLVKGFYPSDIAVEWESNGQPENNYKTTPPVLDSDGSFFLYSKLTVDKSRWQQGNVFSCSVMHEALHNAYTQKSLSLSPGK
light: DTVLTQSPATLSLSPGERATLSCRASESVSTHMHWYQQKPGQAPRLLIYGASNLESGVPARFSGSGSGTDFTLTISSLEPEDFAVYFCQQSWNDPFTFGQGTKLEIKRTVAAPEFVLTQSPGTLSLSPGERATLSCERSSGDIGDSYVSWYQQKPGQAPRLVIYADDQRPSGIPDRFSGSGSGTDFTLTISRLEPEDFAVYYCQSYDINIDIVFGGGTKVEIKRTVAAPSVFIFPPSDEQLKSGTASVVCLLNNFYPREAKVQWKVDNALQSGNSQESVTEQDSKDSTYSLSSTLTLSKADYEKHKVYACEVTHQGLSSPVTKSFNRGEC
notes: DVD-Ig: outer hBDB-4G8.3 (VEGF), inner hBDI-9E8.4 (PDGF), linkers HG-long/LK-short; Human IgG1 L234A, L235A, H435A with kappa
B4: 4G8.3-LS-9E8.4E (PR-1575835) (bispecific antibody, human IgG1, kappa, L234A L235A)
heavy: B3 heavy
light: B3 light with D145E
notes: DVD-Ig: outer hBDB-4G8.3 (VEGF), inner hBDI-9E8.4E (PDGF), linkers HG-long/LK-short; Human IgG1 L234A, L235A, H435A with kappa
B5: 9A8.12-SL-9E8.4E (PR-1577166) (bispecific antibody, human IgG1, kappa, L234A L235A)
heavy: EVQLVQSGAEVKKPGASVKVSCKASGYTFTNYGMYWVRQAPGQGLEWMGWINTETGKPIYADDFKGRVTMTTDTSTSTAYMELRSLRSDDTAVYYCARVDYDGSFWFAYWGQGTLVTVSSASTKGPEVTLRESGPALVKPTQTLTLTCTFSGFSLSTYGMGVGWIRQPPGKALEWLANIWWDDDKYYNPSLKNRLTISKDTSKNQVVLTMTNMDPVDTATYYCARIESIGTTYSFDYWGQGTMVTVSSASTKGPSVFPLAPSSKSTSGGTAALGCLVKDYFPEPVTVSWNSGALTSGVHTFPAVLQSSGLYSLSSVVTVPSSSLGTQTYICNVNHKPSNTKVDKKVEPKSCDKTHTCPPCPAPEAAGGPSVFLFPPKPKDTLMISRTPEVTCVVVDVSHEDPEVKFNWYVDGVEVHNAKTKPREEQYNSTYRVVSVLTVLHQDWLNGKEYKCKVSNKALPAPIEKTISKAKGQPREPQVYTLPPSREEMTKNQVSLTCLVKGFYPSDIAVEWESNGQPENNYKTTPPVLDSDGSFFLYSKLTVDKSRWQQGNVFSCSVMHEALHNAYTQKSLSLSPGK
light: DTQLTQSPSSLSASVGDRVTITCRASESVSTVIHWYQQKPGKQPKLLIHGASNLESGVPSRFSGSGSGTDFTLTISSLQPEDFATYFCQQHWNDPPTFGQGTKLEIKRTVAAPSVFIFPPEFVLTQSPGTLSLSPGERATLSCERSSGDIGESYVSWYQQKPGQAPRLVIYADDQRPSGIPDRFSGSGSGTDFTLTISRLEPEDFAVYYCQSYDINIDIVFGGGTKVEIKRTVAAPSVFIFPPSDEQLKSGTASVVCLLNNFYPREAKVQWKVDNALQSGNSQESVTEQDSKDSTYSLSSTLTLSKADYEKHKVYACEVTHQGLSSPVTKSFNRGEC
notes: DVD-Ig: outer hBEW-9A8.12 (VEGF), inner hBDI-9E8.4E (PDGF), linkers HG-short/LK-long; Human IgG1 L234A, L235A, H435A with kappa
B6: 4G8.3-SL-9E8.4E (PR-1575834) (bispecific antibody, human IgG1, kappa, L234A L235A)
heavy: EVQLVQSGSELKKPGASVKVSCKASGYTFTNYGMYWVRQAPGQGLEWMGWINTETGKPTYADDFKGRFVFSLDTSVSTAYLQISSLKAEDTAVYYCARTNYYYRSYIFYFDYWGQGTMVTVSSASTKGPEVTLRESGPALVKPTQTLTLTCTFSGFSLSTYGMGVGWIRQPPGKALEWLANIWWDDDKYYNPSLKNRLTISKDTSKNQVVLTMTNMDPVDTATYYCARIESIGTTYSFDYWGQGTMVTVSSASTKGPSVFPLAPSSKSTSGGTAALGCLVKDYFPEPVTVSWNSGALTSGVHTFPAVLQSSGLYSLSSVVTVPSSSLGTQTYICNVNHKPSNTKVDKKVEPKSCDKTHTCPPCPAPEAAGGPSVFLFPPKPKDTLMISRTPEVTCVVVDVSHEDPEVKFNWYVDGVEVHNAKTKPREEQYNSTYRVVSVLTVLHQDWLNGKEYKCKVSNKALPAPIEKTISKAKGQPREPQVYTLPPSREEMTKNQVSLTCLVKGFYPSDIAVEWESNGQPENNYKTTPPVLDSDGSFFLYSKLTVDKSRWQQGNVFSCSVMHEALHNAYTQKSLSLSPGK
light: DTVLTQSPATLSLSPGERATLSCRASESVSTHMHWYQQKPGQAPRLLIYGASNLESGVPARFSGSGSGTDFTLTISSLEPEDFAVYFCQQSWNDPFTFGQGTKLEIKRTVAAPSVFIFPPEFVLTQSPGTLSLSPGERATLSCERSSGDIGESYVSWYQQKPGQAPRLVIYADDQRPSGIPDRFSGSGSGTDFTLTISRLEPEDFAVYYCQSYDINIDIVFGGGTKVEIKRTVAAPSVFIFPPSDEQLKSGTASVVCLLNNFYPREAKVQWKVDNALQSGNSQESVTEQDSKDSTYSLSSTLTLSKADYEKHKVYACEVTHQGLSSPVTKSFNRGEC
notes: DVD-Ig: outer hBDB-4G8.3 (VEGF), inner hBDI-9E8.4E (PDGF), linkers HG-short/LK-long; Human IgG1 L234A, L235A, H435A with kappa

target: T1, VEGF-A (human, UniProt P15692 207-395); assay: Biacore SPR; DVD-Ig captured on anti-human Fc, antigen injected
T1 construct: also called hVEGF165
Procedure: (§1) For example, approximately 9000 RU of goat anti-human Fc specific polyclonal antibody (Thermo Fisher Scientific Inc., Rockford, Ill.) diluted in 10 mM sodium acetate (pH 4.5) is directly immobilized across a CM5 research grade biosensor chip using a standard amine coupling kit according to manufacturer's instructions and procedures at 25 μg/ml. Unreacted moieties on the biosensor surface were blocked with ethanolamine. For kinetic analysis, rate equations derived from the 1:1 Langmuir binding model were fitted simultaneously to multiple antigen injections (using global fit analysis) with the use of Scrubber 2 (BioLogic Software), Biacore Biaevaluation 4.0.1 software or Biacore T100 Evaluation software. Purified antibodies or DVD-Ig molecules were diluted in running buffer for capture across goat anti-human Fc reaction surfaces. Antibodies or DVD-Ig molecules to be captured as a ligand (1 μg/ml) were injected over reaction matrices at a flow rate of 10 μl/minute. During the assay, all measurements were referenced against the capture surface alone (i.e., with no captured antibody or DVD-Ig molecule). […] The equilibrium dissociation constant KD (M) of the reaction between antibodies and the target antigen was then calculated from the kinetic rate constants by the following formula: KD=Koff/Kₒₙ. Binding was recorded as a function of time and kinetic rate constants were calculated.

T1 sequence (P15692 other isoform, or with tags, fused parts or gaps limits assumed): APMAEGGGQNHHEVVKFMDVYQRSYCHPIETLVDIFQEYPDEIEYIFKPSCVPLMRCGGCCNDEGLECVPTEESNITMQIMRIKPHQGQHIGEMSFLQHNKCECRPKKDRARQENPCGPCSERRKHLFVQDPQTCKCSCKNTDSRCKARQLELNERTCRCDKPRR

Kd [nM] | kon [M⁻¹ s⁻¹] | Binder
0.013 | 6.1e+06 | B1
0.18 | 770000 | B2
0.0081 | 6.3e+06 | B3
0.01 | 5.8e+06 | B4
0.47 | 250000 | B5
0.01 | 6.2e+06 | B6

target: T2, PDGF-BB (human, UniProt P01127 82-190, limits assumed); assay: as above
T2 construct: also called human PDGF-BB; hPDGF-BB
Procedure: as §1

T2 sequence (P01127 82-190 limits assumed): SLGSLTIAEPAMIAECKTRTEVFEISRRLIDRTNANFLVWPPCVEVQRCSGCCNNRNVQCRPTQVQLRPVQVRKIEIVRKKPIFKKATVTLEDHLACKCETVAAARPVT

Kd [nM] | kon [M⁻¹ s⁻¹] | Binder
0.02 | 1.3e+07 | B1
0.0081 | 3.3e+07 | B2
0.011 | 1.8e+07 | B3
0.014 | 2e+07 | B4
0.0083 | 2.7e+07 | B5
0.015 | 1.7e+07 | B6

— patent US20170015742A1 (published 2017)
